This passage reports stoichiometry N results from paper doi:10.1101/2022.04.21.489128.

The experiment has as its target wild-type FliM (Vibrio alginolyticus flagellar rotor C-ring protein) with an N-terminal His-tag (V. alginolyticus). The experiment is described as follows: SEC. In general terms: SEC sorts molecules by how far they enter the pores of the column.

“wild-type FliM (Vibrio alginolyticus flagellar rotor C-ring protein) with an N-terminal His-tag (natural protein)” gave a stoichiometry N of 2.

Broadly, the stoichiometry N is the number of molecules, sites or subunits per partner or assembly.
